We go through five sequences from the supplement of paper PMC5998384.

For data set [1], the system named is HeLa Kyoto. As to the kind of experiment: solubility change mitosis vs G1/S (difference of NP-40 vs SDS log2 ratios) (log2 ratio difference); higher = more soluble in mitosis.
In data set [2] the test system is HeLa Kyoto. Nature of the data set: thermal stability score vs G1/S (z-score of summed log2 fold changes over temperatures); higher = more thermally stable than in G1/S.
The subject of data set [3] is HeLa Kyoto. Nature of the data set: melting temperature (median over replicates), in situ; higher = more thermally stable.
For data set [4], the system named is HeLa Kyoto. As to the kind of experiment: solubility in G1/S (NP-40 vs SDS abundance) (log2 ratio); higher = more soluble. The settings on record: cell cycle stage: G1/S.
Setting [5] is: cell cycle stage: early G1 (4.5 h after nocodazole release).
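For melting temperature (median over replicates), in situ in this document: HeLa Kyoto cells synchronized by double thymidine or nocodazole block, proteins quantified by TMT10plex mass spectrometry, three independent biological replicates.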
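For solubility change mitosis vs G1/S (difference of NP-40 vs SDS log2 ratios) in this document: synchronized HeLa Kyoto cells (double thymidine block for G1/S, nocodazole release for mitosis), protein amounts in NP-40 versus SDS lysates quantified by mass spectrometry, three biological replicates.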
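For solubility in G1/S (NP-40 vs SDS abundance) in this document: HeLa Kyoto cells arrested at G1/S by double thymidine block, proteins quantified by TMT10plex mass spectrometry in mild NP-40 versus SDS extracts, three biological replicates.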
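For thermal stability score vs G1/S (z-score of summed log2 fold changes over temperatures) in this document: synchronized HeLa Kyoto cells, proteins quantified by TMT10plex mass spectrometry, three biological replicates, mitosis taken 0.5 h after nocodazole release, G1/S directly after double thymidine block.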

On to “MGNAGSMDSQQTDFRAHNVPLKLPMPEPGELEERFAIVLNAMNLPPDKARLLRQYDNEKKWELICDQERFQVKNPPHTYIQKLKGYLDPAVTRKKFRRRVQESTQVLRELEISLRTNHIGWVREFLNEENKGLDVLVEYLSFAQYAVTFDFESVESTVESSVDKSKPWSRSIEDLHRGSNLPSPVGNSVSRSGRHSALRYNTLPSRRTLKNSRLVSKKDDVHVCIMCLRAIMNYQYGFNMVMSHPHAVNEIALSLNNKNPRTKALVLELLAAVCLVRGGHEIILSAFDNFKEVCGEKQRFEKLMEHFRNEDNNIDFMVASMQFINIVVHSVEDMNFRVHLQYEFTKLGLDEYLDKLKHTESDKLQVQIQAYLDNVFDVGALLEDAETKNAALERVEELEENISHLSEKLQDTENEAMSKIVELEKQLMQRNKELDVVREIYKDANTQVHTLRKMVKEKEEAIQRQSTLEKKIHELEKQGTIKIQKKGDGDIAILPVVASGTLSMGSEVVAGNSVGPTMGAASSGPLPPPPPPLPPSSDTPETVQNGPVTPPMPPPPPPPPPPPPPPPPPPPPPLPGPAAETVPAPPLAPPLPSAPPLPGTSSPTVVFNSGLAAVKIKKPIKTKFRMPVFNWVALKPNQINGTVFNEIDDERILEDLNVDEFEEIFKTKAQGPAIDLSSSKQKIPQKGSNKVTLLEANRAKNLAITLRKAGKTADEICKAIHVFDLKTLPVDFVECLMRFLPTENEVKVLRLYERERKPLENLSDEDRFMMQFSKIERLMQKMTIMAFIGNFAESIQMLTPQLHAIIAASVSIKSSQKLKKILEIILALGNYMNSSKRGAVYGFKLQSLDLLLDTKSTDRKQTLLHYISNVVKEKYHQVSLFYNELHYVEKAAAVSLENVLLDVKELQRGMDLTKREYTMHDHNTLLKEFILNNEGKLKKLQDDAKIAQDAFDDVVKYFGENPKTTPPSVFFPVFVRFVKAYKQAEEENELRKKQEQALMEKLLEQEALMEQQDPKSPSHKSKRQQQELIAELRRRQVKDNRHVYEGKDGAIEDIITVLKTVPFTARTAKRGSRFFCEPVLTEEYHY [FMNL2]”, for which the “solubility change mitosis (log2)” value in the data set on HeLa Kyoto [1] was -0.0897. The thermal stability score in the data set with HeLa Kyoto [2] (setting [5]) amounted to 0.436; with HeLa Kyoto [2] (cell cycle stage: mitosis), 0.612. The sequence also had a melting temperature in the data set on HeLa Kyoto [3] (cell cycle stage: G1/S) of 50.8 °C. Further, the “solubility in G1/S (log2)” value with HeLa Kyoto [4] was -0.0432.

In the case of “MGNGMCSRKQKRIFQTLLLLTVVFGFLYGAMLYYELQTQLRKAEAVALKYQQHQESLSAQLQVVYEHRSRLEKSLQKERLEHKKAKEDFLVYKLEAQETLNKGRQDSNSRYSALNVQHQMLKSQHEELKKQHSDLEEEHRKQGEDFSRTFNDHKQKYLQLQQEKEQELSKLKETVYNLREENRQLRKAHQDIHTQLQDVKQQHKNLLSEHEQLVVTLEDHKSALAAAQTQVAEYKQLKDTLNRIPSLRKPDPAEQQNVTQVAHSPQGYNTAREKPTREVQEVSRNNDVWQNHEAVPGRAEDTKLYAPTHKEAEFQAPPEPIQQEVERREPEEHQVEEEHRKALEEEEMEQVGQAEHLEEEHDPSPEEQDREWKEQHEQREAANLLEGHARAEVYPSAKPMIKFQSPYEEQLEQQRLAVQQVEEAQQLREHQEALHQQRLQGHLLRQQEQQQQQVAREMALQRQAELEEGRPQHQEQLRQQAHYDAMDNDIVQGAEDQGIQGEEGAYERDNQHQDEAEGDPGNRHEPREQGPREADPESEADRAAVEDINPADDPNNQGEDEFEEAEQVREENLPDENEEQKQSNQKQENTEVEEHLVMAGNPDQQEDNVDEQYQEEAEEEVQEDLTEEKKRELEHNAEETYGENDENTDDKNNDGEEQEVRDDNRPKGREEHYEEEEEEEEDGAAVAEKSHRRAEM [GOLIM4]”, the “solubility change mitosis (log2)” value with HeLa Kyoto [1] is -0.0167. In addition, the values for the thermal stability score in the data set with HeLa Kyoto [2] (setting [5]) and in the data set with HeLa Kyoto [2] (cell cycle stage: mitosis) were -2.18 and -3.71, respectively. Moreover, the melting temperature in the data set on HeLa Kyoto [3] (cell cycle stage: G1/S) is 54 °C; in the data set with HeLa Kyoto [3] (cell cycle stage: mitosis), 53 °C. In addition, the “solubility in G1/S (log2)” value in the data set with HeLa Kyoto [4] was 0.317.

Take “MGNRGMEELIPLVNKLQDAFSSIGQSCHLDLPQIAVVGGQSAGKSSVLENFVGRDFLPRGSGIVTRRPLILQLIFSKTEHAEFLHCKSKKFTDFDEVRQEIEAETDRVTGTNKGISPVPINLRVYSPHVLNLTLIDLPGITKVPVGDQPPDIEYQIKDMILQFISRESSLILAVTPANMDLANSDALKLAKEVDPQGLRTIGVITKLDLMDEGTDARDVLENKLLPLRRGYIGVVNRSQKDIEGKKDIRAALAAERKFFLSHPAYRHMADRMGTPHLQKTLNQQLTNHIRESLPALRSKLQSQLLSLEKEVEEYKNFRPDDPTRKTKALLQMVQQFGVDFEKRIEGSGDQVDTLELSGGARINRIFHERFPFELVKMEFDEKDLRREISYAIKNIHGVRTGLFTPDLAFEAIVKKQVVKLKEPCLKCVDLVIQELINTVRQCTSKLSSYPRLREETERIVTTYIREREGRTKDQILLLIDIEQSYINTNHEDFIGFANAQQRSTQLNKKRAIPNQGEILVIRRGWLTINNISLMKGGSKEYWFVLTAESLSWYKDEEEKEKKYMLPLDNLKIRDVEKGFMSNKHVFAIFNTEQRNVYKDLRQIELACDSQEDVDSWKASFLRAGVYPEKDQAENEDGAQENTFSMDPQLERQVETIRNLVDSYVAIINKSIRDLMPKTIMHLMINNTKAFIHHELLAYLYSSADQSSLMEESADQAQRRDDMLRMYHALKEALNIIGDISTSTVSTPVPPPVDDTWLQSASSHSPTPQRRPVSSIHPPGRPPAVRGPTPGPPLIPVPVGAAASFSAPPIPSRPGPQSVFANSDLFPAPPQIPSRPVRIPPGIPPGVPSRRPPAAPSRPTIIRPAEPSLLD [DNM2]”: the “solubility change mitosis (log2)” value in the data set with HeLa Kyoto [1] is -0.144. In addition, the thermal stability score with HeLa Kyoto [2] (setting [5]) came to 1.01; with HeLa Kyoto [2] (cell cycle stage: mitosis) it was 1.14. The results for the melting temperature with HeLa Kyoto [3] (cell cycle stage: G1/S) and in the data set with HeLa Kyoto [3] (cell cycle stage: mitosis) were 50.5 °C and 50 °C, respectively. In addition, the “solubility in G1/S (log2)” value with HeLa Kyoto [4] was determined as 0.212.

Consider “MGPLPRTVELFYDVLSPYSWLGFEILCRYQNIWNINLQLRPSLITGIMKDSGNKPPGLLPRKGLYMANDLKLLRHHLQIPIHFPKDFLSVMLEKGSLSAMRFLTAVNLEHPEMLEKASRELWMRVWSRNEDITEPQSILAAAEKAGMSAEQAQGLLEKIATPKVKNQLKETTEAACRYGAFGLPITVAHVDGQTHMLFGSDRMELLAHLLGEKWMGPIPPAVNARL [GSTK1]”, for which the “solubility change mitosis (log2)” value with HeLa Kyoto [1] was -0.098. The thermal stability score in the data set on HeLa Kyoto [2] (setting [5]) is -1.28; with HeLa Kyoto [2] (cell cycle stage: mitosis), -0.907. In addition, the melting temperature in the data set with HeLa Kyoto [3] (cell cycle stage: G1/S) came out at 50.9 °C; in the data set on HeLa Kyoto [3] (cell cycle stage: mitosis) it was 52 °C. For the same sequence, in the data set with HeLa Kyoto [4], the “solubility in G1/S (log2)” value was determined as 0.121.

On to “MGQTVNEDSMDVKKENQEKTPQSSTSSVQRDDFHWEEYLKETGSISAPSECFRQSQIPPVNDFKVGMKLEARDPRNATSVCIATVIGITGARLRLRLDGSDNRNDFWRLVDSPDIQPVGTCEKEGDLLQPPLGYQMNTSSWPMFLLKTLNGSEMASATLFKKEPPKPPLNNFKVGMKLEAIDKKNPYLICPATIGDVKGDEVHITFDGWSGAFDYWCKYDSRDIFPAGWCRLTGDVLQPPGTSVPIVKNIAKTESSPSEASQHSMQSPQKTTLILPTQQVRRSSRIKPPGPTAVPKRSSSVKNITPRKKGPNSGKKEKPLPVICSTSAASLKSLTRDRGMLYKDVASGPCKIVMSTVCVYVNKHGNFGPHLDPKRIQQLPDHFGPGPVNVVLRRIVQACVDCALETKTVFGYLKPDNRGGEVITASFDGETHSIQLPPVNSASFALRFLENFCHSLQCDNLLSSQPFSSSRGHTHSSAEHDKNQSAKEDVTERQSTKRSPQQTVPYVVPLSPKLPKTKEYASEGEPLFAGGSAIPKEENLSEDSKSSSLNSGNYLNPACRNPMYIHTSVSQDFSRSVPGTTSSPLVGDISPKSSPHEVKFQMQRKSEAPSYIAVPDPSVLKQGFSKDPSTWSVDEVIQFMKHTDPQISGPLADLFRQHEIDGKALFLLKSDVMMKYMGLKLGPALKLCYYIEKLKEGKYS [SCML2]”, for which the “solubility change mitosis (log2)” value in the data set on HeLa Kyoto [1] was determined as 0.137. The values for the thermal stability score in the data set with HeLa Kyoto [2] (setting [5]) and in the data set on HeLa Kyoto [2] (cell cycle stage: mitosis) were 4.21 and 8.66, respectively. Further, the results for the melting temperature with HeLa Kyoto [3] (cell cycle stage: G1/S) and with HeLa Kyoto [3] (cell cycle stage: mitosis) were 44.9 °C and 49.1 °C, respectively. In the data set on HeLa Kyoto [4], the “solubility in G1/S (log2)” value was -0.0128.
